{"source": "paper PMC3538539", "about": "“Self-Interaction of Human Pex11pβ during Peroxisomal Growth and Division” (PLoS ONE, 2013)", "proteins": {"B1": {"name": "HsPex11pβ-Myc (natural protein, human, UniProt O96011 1-259, looked up)", "chain": "MDAWVRFSAQSQARERLCRAAQYACSLLGHALQRHGASPELQKQIRQLESHLSLGRKLLRLGNSADALESAKRAVHLSDVVLRFCITVSHLNRALYFACDNVLWAGKSGLAPRVDQEKWAQRSFRYYLFSLIMNLSRDAYEIRLLMEQESSACSRRLKGSGGGVPGGSETGGLGGPGTPGGGLPQLALKLRLQVLLLARVLRGHPPLLLDVVRNACDLFIPLDKLGLWRCGPGIVGLCGLVSSILSILTLIYPWLRLKP", "notes": "human Pex11pβ (HsPex11pβ), peroxisomal membrane protein 11B; also called Pex11pβ-Myc (WT); wild type Pex11pβ-Myc; source: COS-7, transfected; cross-linked in cells, then in detergent extract or lysate; not shown: Myc, C-terminal, kept"}, "B2": {"name": "Pex11pβ-Myc^C18S-C25S-C85S (natural protein, human, UniProt O96011 1-259, looked up)", "chain": "B1 chain with C18S, C25S, C85S", "notes": "human Pex11pβ with the three N-terminal cysteines replaced by serine; also called triple mutant; source: COS-7, transfected; cross-linked in cells, then in Triton X-100 extract; not shown: Myc, C-terminal, kept"}}, "key": {"[1]": {"molecular_target": "the molecule itself", "experiment": "cross-linking; COS-7 cells fixed with 4% para-formaldehyde 24 h after transfection, postfixation extraction with 0.2% Triton X-100 (or digitonin); extracts, pellets and unfixed lysates on SDS-PAGE, anti-Myc immunoblot"}, "[2]": {"molecular_target": "the molecule itself", "experiment": "cross-linking; data not shown: para-formaldehyde fixation, postfixation Triton X-100 extraction, immunoblot"}}, "note": "Substitutions are numbered along the chain they refer to. In names and notes the source's numbering stands."}
{"protein": "B1", "values": [{"measurement": "stoichiometry N", "setting": "[1]", "value": 2}]}
{"protein": "B2", "values": [{"measurement": "stoichiometry N", "setting": "[2]", "value": 2}]}
